Results reported in patent publication JP2020002075A (dated 2020).
Where a chain is given by its changes, count along the chain named. Values belong to the binder of their own block, whether it stands above or below them.

Assays:
[1] = biological target: T1, ヒトポドプラニン (ヒトポドプラニン提示CHO細胞, CHO-hPDPN) (human, UniProt Q86YL7 23-162); test: flow cytometry on CHO-hPDPN, fit f(x)=a*x/(x+Kd)
T1 construct: whole, on cells
T1 sequence (looked up): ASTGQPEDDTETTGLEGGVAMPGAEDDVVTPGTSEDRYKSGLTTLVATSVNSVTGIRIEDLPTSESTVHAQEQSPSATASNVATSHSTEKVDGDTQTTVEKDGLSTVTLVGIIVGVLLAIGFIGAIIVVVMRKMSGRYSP

[2] = biological target: T2, ラットポドプラニン (ラットポドプラニン提示CHO細胞, CHO-rPDPN) (rat, UniProt Q64294 23-166); test: flow cytometry on CHO-rPDPN, fit f(x)=a*x/(x+Kd)
T2 construct: whole, on cells
T2 sequence (looked up): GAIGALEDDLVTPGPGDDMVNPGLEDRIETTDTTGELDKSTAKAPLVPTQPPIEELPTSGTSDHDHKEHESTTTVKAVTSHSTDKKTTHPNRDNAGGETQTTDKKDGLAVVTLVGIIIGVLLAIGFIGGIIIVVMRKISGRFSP

[3] = biological target: T3, ポドプラニン (ポドプラニン提示CHO細胞, 種の記載なし); test: flow cytometry; cells and species not named at this place
T3 construct: whole, on cells

Kd [1]: 6.3 nM
Kd [2]: 108 nM
Kd [3]: 108 nM
B1: clone 1 (第一世代交差性一本鎖可変領域断片) (scFv)
scFv: EVQLKESGGGLVQSGGSLRLSCAASGFSLTDYGVNWVRQAPGKGLEWVGVIWGGGNTYYNSALKSRFTISKDNSKNTLYLQMNSLRAEDTAVYYCAKHRGAWGQGTLVTVSAAGGGGSGGGGSGGGGSDIVMTQSPSTLAVSLGEKATINCKSSKSLLNSGNQKNYLIWYQQKPGQPPKLLIYGASTRESGVPDRFSGSVSGTDFTLTISSLQAEDLAVYYCQNDHTYPLTFGQGTKVEIKRTV
notes: From the Hu2LPMab-16 scFv library; also called クローン1; 第一世代交差性抗体; not shown: C-terminal FLAG tag and His tag

Kd [1]: 6.5 nM
Kd [2]: 500 nM
B2: clone 2 (scFv)
scFv: B1 scFv with S14P, T138N, K155Q, I168N, G184R, T231I
notes: From the Hu2LPMab-16 scFv library; also called クローン2; not shown: C-terminal FLAG tag and His tag
